Measured values from publication PMC3865061.

Tests used:
[1] = biological target: T1, Influenza A virus matrix protein M1 (full-length), strain A/Puerto Rico/8/34 (H1N1) (Influenza A virus A/Puerto Rico/8/34 (H1N1)), P03485; assay: SAXS; conditions: remark: other sources report otherwise
T1 chain: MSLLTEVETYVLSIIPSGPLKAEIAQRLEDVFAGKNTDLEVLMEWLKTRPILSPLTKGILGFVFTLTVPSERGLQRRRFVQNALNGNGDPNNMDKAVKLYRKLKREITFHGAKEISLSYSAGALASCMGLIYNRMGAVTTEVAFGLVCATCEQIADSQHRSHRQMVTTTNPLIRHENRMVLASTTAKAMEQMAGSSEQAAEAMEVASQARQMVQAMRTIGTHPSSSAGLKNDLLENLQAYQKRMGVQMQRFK

[2] = biological target: T1, Influenza A virus matrix protein M1 …; assay: AUC; conditions: remark: other sources report otherwise

B1: Influenza A virus matrix protein M1 (full-length), strain A/Puerto Rico/8/34 (H1N1), P03485 1-252 (natural protein)
chain: MSLLTEVETYVLSIIPSGPLKAEIAQRLEDVFAGKNTDLEVLMEWLKTRPILSPLTKGILGFVFTLTVPSERGLQRRRFVQNALNGNGDPNNMDKAVKLYRKLKREITFHGAKEISLSYSAGALASCMGLIYNRMGAVTTEVAFGLVCATCEQIADSQHRSHRQMVTTTNPLIRHENRMVLASTTAKAMEQMAGSSEQAAEAMEVASQARQMVQAMRTIGTHPSSSAGLKNDLLENLQAYQKRMGVQMQRFK
B1 gave a volume fraction of clusters (volume fraction) [1] of 0.03 and a volume percent of large associates (volume percent) [2] of 2 to 3.
